Results on 167 variants are retold here after the RNAGym collection of RNA variant scans (doi:10.7554/elife.80360).

The chains are these.
B1: HDV Ribozyme (parent)
chain: GGCCGGCAUGGUCCCAGCCUCCUCGCUGGCGCCGGCUGGGCAACAUUCCGAGGGGACCGUCCCCUCGGUAAUGGCGAAUGGGACCCA

The variants in this data set derive from B1. Kind of data set: self-cleavage, relative activity (ratio to wild type); higher = more cleavage; co-transcriptional.
G52C G81C: the self-cleavage worked out at 0.242.
With A51U G82C, the self-cleavage is 0.282.
As to G52C C84G, the self-cleavage amounted to 0.978.
Next, G52A G67C: 0.878; G52A G67A: 0.923; G53A C61U: 0.99.
As for G53A C61A, the figure is 0.987.
Turning to G52C U72G, the self-cleavage came to 0.723.
Consider G52C U72A, for which the self-cleavage was 0.872.
On to A51U C75U, for which the self-cleavage amounted to 0.177.
On to A51U C75G, for which the self-cleavage stood at 0.344.
Next, A51U C75A: 0.123.
As for G52U A77G, the self-cleavage was 0.647.
As for G52C G54A, the self-cleavage was 0.541.
Take G52U G54C: the self-cleavage worked out at 0.684.
Consider G52C C75G, for which the self-cleavage amounted to 0.104.
As to A51U U69G, the self-cleavage worked out at 0.98.
Take G53U A77U: the self-cleavage worked out at 0.623.
As to G53U A77C, the self-cleavage stood at 0.453.
G52A A71G: the self-cleavage is 0.845.
Regarding G52A A71U, the self-cleavage was 0.923.
Next, A51U G52U: 0.889; A51U G52C: 0.849.
Turning to G53C G82C, the self-cleavage is 0.0923.
As for G53C G82U, the self-cleavage came out at 0.358.
For G53C G82A, the self-cleavage amounted to 0.383.
On to G52U U60C, for which the self-cleavage was 0.961.
Take G52A C66U: the self-cleavage came to 0.982.
Regarding G52A C66G, the self-cleavage was determined as 0.841.
Consider G52A G80A, for which the self-cleavage was 0.386.
In the case of G52A G80C, the self-cleavage came out at 0.272.
Consider G52A G80U, for which the self-cleavage is 0.262.
In the case of G52A A83G, the self-cleavage turned out to be 0.85.
As for G52A A83U, the self-cleavage stood at 0.475.
Turning to A51G G55A, the self-cleavage was found to be 0.972.
For the variant G52A G74A, the self-cleavage is 0.518.
As for G53C U69A, the figure is 0.77; as for A51U C64A, 0.845; as for A51U C64G, 0.578.
Take A51U C64U: the self-cleavage stood at 0.927.
Regarding G53A U69C, the self-cleavage is 1.11.
Turning to G53A U69G, the self-cleavage came to 1.04.
Turning to G53A U69A, the self-cleavage is 1.03.
On to G52C G82U, for which the self-cleavage came out at 0.283.
Regarding G52C G82C, the self-cleavage was 0.141.
As for G52A A87U, the self-cleavage was 0.897.
As to G52A A87C, the self-cleavage came out at 1.13.
For the variant G52C G73U, the self-cleavage was found to be 0.415.
For G52A C64U, the self-cleavage was 0.992.
For A51G G68U, the self-cleavage was 0.831.
Consider G53C U60A, for which the self-cleavage was determined as 1.15.
As for A51U C86U, the figure is 0.831.
Take A51U C86A: the self-cleavage was determined as 0.848.
On to A51U C86G, for which the self-cleavage stood at 1.21.
Consider G52U C58U, for which the self-cleavage turned out to be 0.898.
Regarding G52A U69C, the self-cleavage was found to be 1.21.
As for G52A, the figure is 1.02.
Take G52C: the self-cleavage came to 1.01.
In the case of G52U, the self-cleavage worked out at 0.938.
Turning to G52C G53C, the self-cleavage was 0.582.
For the variant G52U G67A, the self-cleavage was 0.265.
G52U A78U: the self-cleavage amounted to 0.378.
As for G52U A78C, the self-cleavage was determined as 0.292.
For the variant G53A C64A, the self-cleavage amounted to 0.639.
As to G53A C64U, the self-cleavage is 0.968.
For the variant A51G G81A, the self-cleavage is 0.285.
With A51U A71U, the self-cleavage was found to be 1.01.
As for A51G G54C, the figure is 1.37.
For A51G G54A, the self-cleavage was 0.831.
Regarding A51G G54U, the self-cleavage came out at 1.07.
With G52U C61U, the self-cleavage came to 0.936.
For the variant G52U C61A, the self-cleavage amounted to 1.02.
For the variant G53A G54C, the self-cleavage was found to be 0.857.
As for G52U C75A, the self-cleavage was 0.148.
Next, G52A G53C: 0.743; G52A A78U: 0.277; G52A A78C: 0.347.
In the case of G53C G54U, the self-cleavage is 1.08.
In the case of G53C G54C, the self-cleavage came to 0.706.
On to A51U U65C, for which the self-cleavage turned out to be 1.04.
With A51U U65A, the self-cleavage amounted to 0.966.
Take A51U G54C: the self-cleavage came to 0.982.
G53C C86G: the self-cleavage was 0.903.
Next, A51U A56C: 0.851; G52C U79C: 0.582; G52C U79A: 0.906.
As for G52C C85A, the self-cleavage is 0.969.
G52C C85G: the self-cleavage worked out at 1.03.
On to G52U C66A, for which the self-cleavage is 0.618.
In the case of G52U C66U, the self-cleavage worked out at 0.737.
As for G52U C66G, the self-cleavage amounted to 0.472.
On to G52A G73C, for which the self-cleavage amounted to 0.337.
Consider G52A G73A, for which the self-cleavage stood at 0.602.
For G52C G68U, the self-cleavage was determined as 0.332.
For G52C G80U, the self-cleavage was 0.299.
Next, G52C G80A: 0.475.
Next, G52U G55A: 0.731.
For G52U G55U, the self-cleavage turned out to be 0.822.
As for A51U C57U, the self-cleavage is 0.801.
For the variant A51U C57A, the self-cleavage worked out at 0.814.
As to G52C A77U, the self-cleavage came to 0.731.
Turning to G52C A77C, the self-cleavage was 0.403.
With G52C A77G, the self-cleavage was 0.643.
On to G53A G55U, for which the self-cleavage is 1.17.
With G53C G81A, the self-cleavage amounted to 0.369.
Consider G53C G81U, for which the self-cleavage turned out to be 0.293.
G52U C62U: the self-cleavage was found to be 0.754.
As for G52C G55A, the figure is 0.901; as for G52C G55U, 0.966.
As for G53C A70G, the figure is 0.962; as for G53C A70C, 0.653; as for G53C A70U, 0.988.
In the case of G53A C75G, the self-cleavage worked out at 0.156.
As for A51U A83G, the self-cleavage was determined as 0.669.
Next, A51U A83U: 0.712; A51U A83C: 0.269.
Consider G53A C63A, for which the self-cleavage worked out at 0.819.
Next, G53A C63G: 1.01.
With G53A A77G, the self-cleavage was 0.916.
In the case of G53A A77C, the self-cleavage was found to be 0.251.
As for G52U A71U, the figure is 0.781.
As for G52C G74C, the self-cleavage was 0.17.
Next, G52C G74A: 0.486.
Consider G53C C62A, for which the self-cleavage was determined as 0.937.
In the case of G53C C62U, the self-cleavage stood at 1.03.
In the case of G53C G59U, the self-cleavage was determined as 0.967.
As for A51G G80C, the figure is 0.141; as for A51G G80U, 0.229; as for G52A G81A, 0.529.
Next, G53C: 0.97; G53U: 1.01; G53A: 1.
Regarding G52C U60C, the self-cleavage was 0.966.
Regarding G53A C84G, the self-cleavage is 0.85.
Turning to G53U A71G, the self-cleavage was 0.843.
For the variant G52U G59C, the self-cleavage is 0.765.
A51U G68U: the self-cleavage worked out at 0.9.
In the case of A51U G68A, the self-cleavage was 0.787.
As for A51U G68C, the figure is 0.554; as for A51G G67C, 0.864; as for A51G G67A, 0.831.
As for A51U G73A, the figure is 0.607; as for A51U G73C, 0.415.
For the variant A51U G73U, the self-cleavage was determined as 0.504.
With G53C C84U, the self-cleavage amounted to 0.712.
In the case of G52A A70C, the self-cleavage was found to be 0.791.
As for G52A A70U, the self-cleavage was found to be 0.858.
Turning to G53U A87C, the self-cleavage came to 0.984.
G53U A87G: the self-cleavage is 1.03.
Regarding G53U A87U, the self-cleavage was 0.969.
As for G52U G73C, the figure is 0.155.
As to G52U G73U, the self-cleavage was 0.305.
On to A51U C58U, for which the self-cleavage was determined as 1.17.
For A51U G81U, the self-cleavage turned out to be 0.282.
With G53A C62U, the self-cleavage turned out to be 0.926.
For the variant G52A C61U, the self-cleavage amounted to 0.879.
Consider G52A U79C, for which the self-cleavage was found to be 0.514.
As for A51U C63A, the figure is 0.911; as for A51U A87G, 0.965.
As for A51U A87C, the self-cleavage is 0.959.
Next, A51U C66G: 0.816.
As to G52C C63G, the self-cleavage was found to be 0.892.
As to G53C A78U, the self-cleavage was found to be 0.525.
For G53C A78G, the self-cleavage was 0.554.
Next, G52U C85U: 0.781.
Next, G52U C85G: 0.791; G52C C62G: 0.383.
